Test results: PMC8381054

Tests used:
[1] = biological target: human CR2(SCR1-4)-Fc (human)
[2] = biological target: recombinant wild-type human C3d with its native thioester cysteine intact (C3d^17C) (human) (UniProt P01024); assay: non-reducing SDS-PAGE; recombinant C3d^17C 'under non-reducing conditions', 'in a similar manner' to C3b (Supplementary Figure S2, not shown)
[3] = biological target: recombinant wild-type human C3d with its native thioester cysteine intact (C3d^17C) (human) (UniProt P01024); assay: SEC; size exclusion chromatography of C3d^17C in solution (Supplementary Figure S2); monomer and disulphide-linked dimer

| Substance | geometric mean EC50 of upregulation of CD69 on CD19+ B cells in human PBMC, with anti-IgM F(ab')2 [1] | geometric mean EC50 of upregulation of CD86 on CD19+ B cells in human PBMC, with anti-IgM F(ab')2 [1] | stoichiometry N [2] | stoichiometry N [3] |
| --- | --- | --- | --- | --- |
| chemically-linked dimeric C3d^17C (from UniProt P01024 996-1303) | 47 nM | 18 nM |  |  |
| human C3d with a Cys to Ala mutation at position 17(C3d)/1010 (pre-pro C3) (C3d^17A) (from UniProt P01024 996-1303) (domain or fragment) | 139 nM | 59 nM |  |  |
| recombinant wild-type human C3d with its native thioester cysteine intact (C3d^17C) (from UniProt P01024 996-1303) (domain or fragment) |  |  | 2 | 2 |
